Source: patent US20200199204A1

Key:
Assay in all cases: cell-based or functional assay
[1] = biological target: HIV-1 Env of 96ZM651.02 (HIV-1)
[2] = biological target: HIV-1 Env of ZM233.6 (HIV-1)
[3] = biological target: HIV-1 Env of C1080.c3 (HIV-1)
[4] = biological target: HIV-1 Env of CAP210.E8 (HIV-1)
[5] = biological target: HIV-1 Env of WITO.33 (HIV-1)
[6] = biological target: HIV-1 Env of Q168.a2 (HIV-1)
[7] = biological target: HIV-1 Env of ZM53.12 (HIV-1)
[8] = biological target: HIV-1 Env of Q259.d2.17 (HIV-1)
[9] = biological target: HIV-1 Env of TH976.17 (HIV-1)
[10] = biological target: HIV-1 Env of REJO.67 (HIV-1)
[11] = biological target: HIV-1 Env of TRJO.58 (HIV-1)
[12] = biological target: HIV-1 Env of DU422.01 (HIV-1)
[13] = biological target: HIV-1 Env of CAAN.A2 (HIV-1)
[14] = biological target: HIV-1 Env of KER2018.11 (HIV-1)
[15] = biological target: HIV-1 Env of DU172.17 (HIV-1)
[16] = biological target: HIV-1 Env of ZM109.4 (HIV-1)
[17] = biological target: HIV-1 Env of Q842.d12 (HIV-1)
[18] = biological target: HIV-1 Env of Q769.d22 (HIV-1)
[19] = biological target: HIV-1 Env of ZM214.15 (HIV-1)
[20] = biological target: HIV-1 Env of UG037.8 (HIV-1)
[21] = biological target: HIV-1 Env of ZM197.7 (HIV-1)
[22] = biological target: HIV-1 Env of RW020.2 (HIV-1)
[23] = biological target: HIV-1 Env of 0260.v5.c36 (HIV-1)
[24] = biological target: HIV-1 Env of 6405.v4.c34 (HIV-1)
[25] = biological target: HIV-1 Env of CAP256.PI (HIV-1)
[26] = biological target: HIV-1 Env of CAP244.D3 (HIV-1)
[27] = biological target: HIV-1 Env of Q23.17 (HIV-1)
[28] = biological target: HIV-1 Env of QH0692.42 (HIV-1)
[29] = biological target: HIV-1 Env of ZM249.1 (HIV-1)
[30] = biological target: HIV-1 Env of ZM135.10a (HIV-1)
[31] = biological target: HIV-1 Env of CNE3 (HIV-1)
[32] = biological target: HIV-1 Env of CAP45.G3 (HIV-1)
[33] = biological target: HIV-1 Env of 6535.3 (HIV-1)
[34] = biological target: HIV-1 Env of MB201 (HIV-1)
[35] = biological target: HIV-1 Env of TRO.11 (HIV-1)
[36] = biological target: HIV-1 Env of CAP256.SU (HIV-1)
[37] = biological target: HIV-1 Env of RHPA.7 (HIV-1)
[38] = biological target: HIV-1 Env of MB539.2B7 (HIV-1)
[39] = biological target: HIV-1 Env of 3016.V5.c36 (HIV-1)
[40] = biological target: HIV-1 Env of THRO.18 (HIV-1)
[41] = biological target: HIV-1 Env of CM244.ec1 (HIV-1)
[42] = biological target: HIV-1 Env of SC422.8 (HIV-1)
[43] = biological target: HIV-1 Env of PVO.04 (HIV-1)
[44] = biological target: HIV-1 Env of KER2008.12 (HIV-1)
[45] = biological target: HIV-1 Env of AC10.29 (HIV-1)
[46] = biological target: HIV-1 Env of DU156.12 (HIV-1)
[47] = biological target: HIV-1 Env of Q461.e2 (HIV-1)
[48] = biological target: HIV-1 Env of BG505.w6m (HIV-1)

In the case of CAP256-VRC26.32 (antibody), the IC50 (neutralization, TZM-bl) [1] is reported as greater than 50 µg/mL, the IC50 (neutralization, TZM-bl) [2] is reported as 0.015 µg/mL and the IC50 (neutralization, TZM-bl) [3] is reported as greater than 50 µg/mL. It also gave an IC50 (neutralization, TZM-bl) [4] of 0.008 µg/mL, an IC50 (neutralization, TZM-bl) [5] greater than 50 µg/mL and an IC50 (neutralization, TZM-bl) [6] greater than 50 µg/mL. For the same substance, the IC50 (neutralization, TZM-bl) [7] was 0.011 µg/mL, the IC50 (neutralization, TZM-bl) [8] was greater than 50 µg/mL and the IC50 (neutralization, TZM-bl) [9] was greater than 50 µg/mL. The IC50 (neutralization, TZM-bl) [10] was greater than 50 µg/mL, the IC50 (neutralization, TZM-bl) [11] was greater than 50 µg/mL and the IC50 (neutralization, TZM-bl) [12] was greater than 50 µg/mL. For the same substance, the IC50 (neutralization, TZM-bl) [13] was greater than 50 µg/mL, the IC50 (neutralization, TZM-bl) [14] was 0.032 µg/mL and the IC50 (neutralization, TZM-bl) [15] was greater than 50 µg/mL. It also gave an IC50 (neutralization, TZM-bl) [16] greater than 50 µg/mL, an IC50 (neutralization, TZM-bl) [17] greater than 50 µg/mL and an IC50 (neutralization, TZM-bl) [18] greater than 50 µg/mL. For the same substance, the IC50 (neutralization, TZM-bl) [19] was greater than 50 µg/mL, the IC50 (neutralization, TZM-bl) [20] was greater than 50 µg/mL and the IC50 (neutralization, TZM-bl) [21] was 0.097 µg/mL. The IC50 (neutralization, TZM-bl) [22] was greater than 50 µg/mL, the IC50 (neutralization, TZM-bl) [23] was greater than 50 µg/mL and the IC50 (neutralization, TZM-bl) [24] was greater than 50 µg/mL. The IC50 (neutralization, TZM-bl) [25] was greater than 50 µg/mL, the IC50 (neutralization, TZM-bl) [26] was greater than 50 µg/mL and the IC50 (neutralization, TZM-bl) [27] was greater than 50 µg/mL. For the same substance, the IC50 (neutralization, TZM-bl) [28] was greater than 50 µg/mL, the IC50 (neutralization, TZM-bl) [29] was 16.8 µg/mL and the IC50 (neutralization, TZM-bl) [30] was greater than 50 µg/mL. For the same substance, the IC50 (neutralization, TZM-bl) [31] was greater than 50 µg/mL, the IC50 (neutralization, TZM-bl) [32] was greater than 50 µg/mL and the IC50 (neutralization, TZM-bl) [33] was greater than 50 µg/mL. The IC50 (neutralization, TZM-bl) [34] was greater than 50 µg/mL, the IC50 (neutralization, TZM-bl) [35] was greater than 50 µg/mL and the IC50 (neutralization, TZM-bl) [36] was 0.004 µg/mL. The IC50 (neutralization, TZM-bl) [37] was greater than 50 µg/mL, the IC50 (neutralization, TZM-bl) [38] was greater than 50 µg/mL and the IC50 (neutralization, TZM-bl) [39] was 0.284 µg/mL. The IC50 (neutralization, TZM-bl) [40] was greater than 50 µg/mL, the IC50 (neutralization, TZM-bl) [41] was 0.561 µg/mL and the IC50 (neutralization, TZM-bl) [42] was greater than 50 µg/mL. The IC50 (neutralization, TZM-bl) [43] was 17.8 µg/mL, the IC50 (neutralization, TZM-bl) [44] was greater than 50 µg/mL and the IC50 (neutralization, TZM-bl) [45] was greater than 50 µg/mL. It also gave an IC50 (neutralization, TZM-bl) [46] greater than 50 µg/mL, an IC50 (neutralization, TZM-bl) [47] greater than 50 µg/mL and an IC50 (neutralization, TZM-bl) [48] greater than 50 µg/mL.
CAP256-VRC26.33 (antibody) gave an IC50 (neutralization, TZM-bl) [1] greater than 50 µg/mL, an IC50 (neutralization, TZM-bl) [2] of 0.004 µg/mL and an IC50 (neutralization, TZM-bl) [3] greater than 50 µg/mL. The IC50 (neutralization, TZM-bl) [4] was 0.017 µg/mL, the IC50 (neutralization, TZM-bl) [5] was greater than 50 µg/mL and the IC50 (neutralization, TZM-bl) [6] was greater than 50 µg/mL. For the same substance, the IC50 (neutralization, TZM-bl) [7] was 0.015 µg/mL, the IC50 (neutralization, TZM-bl) [8] was greater than 50 µg/mL and the IC50 (neutralization, TZM-bl) [9] was greater than 50 µg/mL. It also gave an IC50 (neutralization, TZM-bl) [10] greater than 50 µg/mL, an IC50 (neutralization, TZM-bl) [11] greater than 50 µg/mL and an IC50 (neutralization, TZM-bl) [12] of 29.5 µg/mL. For the same substance, the IC50 (neutralization, TZM-bl) [13] was greater than 50 µg/mL, the IC50 (neutralization, TZM-bl) [14] was 0.037 µg/mL and the IC50 (neutralization, TZM-bl) [15] was greater than 50 µg/mL. For the same substance, the IC50 (neutralization, TZM-bl) [16] was greater than 50 µg/mL, the IC50 (neutralization, TZM-bl) [17] was greater than 50 µg/mL and the IC50 (neutralization, TZM-bl) [18] was greater than 50 µg/mL. The IC50 (neutralization, TZM-bl) [19] was greater than 50 µg/mL, the IC50 (neutralization, TZM-bl) [20] was greater than 50 µg/mL and the IC50 (neutralization, TZM-bl) [21] was 1.73 µg/mL. It also gave an IC50 (neutralization, TZM-bl) [22] greater than 50 µg/mL, an IC50 (neutralization, TZM-bl) [23] greater than 50 µg/mL and an IC50 (neutralization, TZM-bl) [24] greater than 50 µg/mL. It also gave an IC50 (neutralization, TZM-bl) [25] greater than 50 µg/mL, an IC50 (neutralization, TZM-bl) [26] greater than 50 µg/mL and an IC50 (neutralization, TZM-bl) [27] greater than 50 µg/mL. The IC50 (neutralization, TZM-bl) [28] was greater than 50 µg/mL, the IC50 (neutralization, TZM-bl) [29] was 22.5 µg/mL and the IC50 (neutralization, TZM-bl) [30] was greater than 50 µg/mL. It also gave an IC50 (neutralization, TZM-bl) [31] greater than 50 µg/mL, an IC50 (neutralization, TZM-bl) [32] of 0.622 µg/mL and an IC50 (neutralization, TZM-bl) [33] greater than 50 µg/mL. For the same substance, the IC50 (neutralization, TZM-bl) [34] was greater than 50 µg/mL, the IC50 (neutralization, TZM-bl) [35] was greater than 50 µg/mL and the IC50 (neutralization, TZM-bl) [36] was 0.007 µg/mL. For the same substance, the IC50 (neutralization, TZM-bl) [37] was greater than 50 µg/mL, the IC50 (neutralization, TZM-bl) [38] was greater than 50 µg/mL and the IC50 (neutralization, TZM-bl) [39] was 0.506 µg/mL. The IC50 (neutralization, TZM-bl) [40] was greater than 50 µg/mL, the IC50 (neutralization, TZM-bl) [41] was 0.036 µg/mL and the IC50 (neutralization, TZM-bl) [42] was greater than 50 µg/mL. It also gave an IC50 (neutralization, TZM-bl) [43] greater than 50 µg/mL, an IC50 (neutralization, TZM-bl) [44] greater than 50 µg/mL and an IC50 (neutralization, TZM-bl) [45] greater than 50 µg/mL. It also gave an IC50 (neutralization, TZM-bl) [46] greater than 50 µg/mL, an IC50 (neutralization, TZM-bl) [47] greater than 50 µg/mL and an IC50 (neutralization, TZM-bl) [48] greater than 50 µg/mL.
